Sequences and labels used below:
B1: h528scFv, single-chain antibody of the humanized anti-human EGF receptor 1 (Her1) antibody 528 before lysine substitution (scFv)
scFv: QVQLVQSGAEVKKPGASVKVSCKASGYTFTSYWMHWVRQAPGQGLEWMGNIYPGSGGTNYAEKFKNRVTMTRDTSISTAYMELSRLRSDDTAVYYCARSGGPYFFDYWGQGTLVTVSSAGGGGSDIVMTQSPLSLPVTPGEPASISCRSSQNIVHNNGITYLEWYLQKPGQSPQLLIYKVSDRFSGVPDRFSGSGSGTDFTLKISRVEAEDVGVYYCFQGSHIPPTFGQGTKVEIKRAAAAEQKLISEEDLNLGGGMRGSHHHHHH
notes: also called PC
B2: lysine-substituted single-chain antibody "OK" containing VH0K and VL0K (all lysine residues replaced) (scFv)
scFv: QVQLVQSGAEVAEPGASVQVSCAASGYTFTSYWMHWVRQAPGQGLEWMGNIYPGSGGTNYAEEFQNRVTMTRDTSISTAYMELSRLRSDDTAVYYCARSGGPYFFDYWGQGTLVTVSSGGGGSGGGGSGGGGSDIVMTQSPLSLPVTPGEPASISCRSSQNIVHNNGITYLEWYLQRPGQSPQLLIYQVSDRFSGVPDRFSGSGSGTDFTLTISRVEAEDVGVYYCFQGSHIPPTFGQGTEVEIERHHHHHH
notes: Expressed in E. coli; also called VH0K VL0K
B3: lysine-substituted single-chain antibody "HK" containing VH1K and VL0K (H19 re-replaced with lysine) (scFv)
scFv: QVQLVQSGAEVAEPGASVKVSCAASGYTFTSYWMHWVRQAPGQGLEWMGNIYPGSGGTNYAEEFQNRVTMTRDTSISTAYMELSRLRSDDTAVYYCARSGGPYFFDYWGQGTLVTVSSGGGGSGGGGSGGGGSDIVMTQSPLSLPVTPGEPASISCRSSQNIVHNNGITYLEWYLQRPGQSPQLLIYQVSDRFSGVPDRFSGSGSGTDFTLTISRVEAEDVGVYYCFQGSHIPPTFGQGTEVEIERHHHHHH
notes: Expressed in E. coli; also called VH1K VL0K
B4: lysine-substituted single-chain antibody "LK" containing VH0K and VL1K (L108 re-replaced with lysine) (scFv)
scFv: QVQLVQSGAEVAEPGASVQVSCAASGYTFTSYWMHWVRQAPGQGLEWMGNIYPGSGGTNYAEEFQNRVTMTRDTSISTAYMELSRLRSDDTAVYYCARSGGPYFFDYWGQGTLVTVSSGGGGSGGGGSGGGGSDIVMTQSPLSLPVTPGEPASISCRSSQNIVHNNGITYLEWYLQRPGQSPQLLIYQVSDRFSGVPDRFSGSGSGTDFTLTISRVEAEDVGVYYCFQGSHIPPTFGQGTKVEIERHHHHHH
notes: Expressed in E. coli; also called VH0K VL1K

The target of this assay is human EGF receptor 1 (EGFR) as used in the SPR rate analysis (UniProt P00533 25-645, limits assumed). Description: SPR rate analysis of scFv.
B1 had a Ka of 2.61e+07 M⁻¹, a koff of 0.00542 s⁻¹ and an on-rate (kon) of 141000 M⁻¹ s⁻¹.

In the case of B2, the Ka is 7.32e+06 M⁻¹, the dissociation rate constant (koff) came to 0.00824 s⁻¹ and the kon worked out at 60300 M⁻¹ s⁻¹.

B3 had a Ka of 8.82e+06 M⁻¹, an off-rate constant (koff) of 0.00805 s⁻¹ and a kon of 71000 M⁻¹ s⁻¹.

On to B4, for which the Ka is 8.34e+06 M⁻¹, the koff is 0.00853 s⁻¹ and the kon was found to be 71100 M⁻¹ s⁻¹.

Usually koff stands for the first-order rate constant of dissociation. Read a high koff as fast dissociation. The term kon denotes a measure of how fast the partners come together. A lower kon goes with slower complex formation.
